Experimental data as given in EP4624493A1 (Jiangsu Hengrui Pharmaceuticals Co., Ltd., dated 2025).

Target: T1, human HGFR protein extracellular domain with the His tag (human, UniProt P08581 25-932)
T1 construct: also called HGFR-His
Experiment: SPR Biacore T200, comparison of KD values

T1 sequence (P08581 other isoform, or with tags, fused parts or gaps): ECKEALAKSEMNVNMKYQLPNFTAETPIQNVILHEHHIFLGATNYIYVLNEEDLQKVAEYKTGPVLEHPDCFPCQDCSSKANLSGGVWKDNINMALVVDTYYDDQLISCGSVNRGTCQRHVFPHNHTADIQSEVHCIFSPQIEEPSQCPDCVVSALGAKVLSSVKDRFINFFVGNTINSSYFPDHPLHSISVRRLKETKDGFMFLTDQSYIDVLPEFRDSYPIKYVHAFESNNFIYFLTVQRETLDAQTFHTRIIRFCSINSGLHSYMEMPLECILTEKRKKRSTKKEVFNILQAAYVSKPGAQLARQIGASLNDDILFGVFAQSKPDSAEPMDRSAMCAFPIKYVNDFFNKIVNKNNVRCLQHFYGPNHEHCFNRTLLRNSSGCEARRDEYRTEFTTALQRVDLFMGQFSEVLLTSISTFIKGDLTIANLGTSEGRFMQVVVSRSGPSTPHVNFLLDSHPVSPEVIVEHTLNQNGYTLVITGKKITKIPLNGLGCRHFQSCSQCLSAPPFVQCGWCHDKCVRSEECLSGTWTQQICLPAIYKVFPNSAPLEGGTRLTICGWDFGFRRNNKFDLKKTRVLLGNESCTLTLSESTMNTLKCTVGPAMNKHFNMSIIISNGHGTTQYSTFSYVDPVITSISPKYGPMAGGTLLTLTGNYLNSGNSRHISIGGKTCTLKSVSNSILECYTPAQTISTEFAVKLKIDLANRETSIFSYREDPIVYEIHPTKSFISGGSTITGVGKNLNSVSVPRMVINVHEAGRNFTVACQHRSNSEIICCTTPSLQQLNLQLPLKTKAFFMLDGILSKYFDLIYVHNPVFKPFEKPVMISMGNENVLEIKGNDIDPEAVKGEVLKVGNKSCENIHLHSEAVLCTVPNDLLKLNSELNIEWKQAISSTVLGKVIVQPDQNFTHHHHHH

fold affinity against the parent antibody Ab10: ≥ 4 fold
B1: Ab10.1, mutant antibody of Ab10 (anti-HGFR) (antibody, V domains shown)
VH: QVQLVESGGGVVQPGRSLRLSCAASGFSLSDYGVHWVRQAPGKGLEWLAVIWSGGSTNYADAFVSRLTISKDNSKNTVYLQMNSLRAEDTAVYYCARNHDNPYIYAMDYWGQGTTVTVSS
VL: DIVLTQSPDSLAVSLGERATINCRADKSVSTSTYNYLHWYQQKPGQPPKLLIYRGSFLATGVPDRFSGSGSGTDFTLTISSLQAEDVAVYYCQHSRDLPPTFGQGTKLEIK
